Measured values reported in patent publication US20090232801A1 (ABBOT LABORATORIES, published 2009).
Numbering of substitutions follows the chain as printed. In names and notes the source's numbering stands. Each block holds one binder with its values, some of them ahead of it.

Experiments:
[1] = target: T1, Aβ(1-40) monomer (human); test: dot blot, 10 pmol antigen on nitrocellulose, 0.2 µg/ml antibody, densitometry
T1 construct: Human Aβ(1-40), Bachem H-1194, HFIP treated and dissolved in DMSO; also called Aβ40
T1 sequence (peptide, as listed by the source): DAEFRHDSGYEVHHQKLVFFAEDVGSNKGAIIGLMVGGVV
Method: (§1) The dot blot was developed with a development solution made from 1 tablet of NBT/BCIP (Roche) dissolved in 20 mL H₂O for 5 min. The development was stopped by intense washing of the dot blot with H₂O. Quantitative evaluation was done using a densitometric analysis (GS800 densitometer (BioRad) and software package Quantity one, Version 4.5.0 (BioRad)) of the dot-intensity. Only the dots for 10 pmol Aβ antigen were evaluated. Results for the Discrimination of Aβ Monomer Against Aβ Globulomer by Dot Blot Method: Comparison of 8F5hum8 Versus 4G8.
(§2) The humanized monoclonal antibody 8F5hum8 (0.2 μg/ml) were used for detection with an anti-human IgG coupled to alkaline phosphatase as secondary antibody and the staining reagent NBT/BCIP (Roche Diagnostics, Mannheim). The detection signal was analyzed in its intensity (reflective density=RD) via a densitometer (GS 800, Biorad, Hercules, Calif., USA) at an antigen concentration of 10 pmol. At this concentration for every Aβ-form, the measured reflective density was in the linear range of the densitometer detection.

[2] = target: T2, Aβ(1-42) monomer, HFIP pretreated (human); test: as above
T2 construct: Human Aβ(1-42), Bachem H-1368, monomer preparation in Pluronic F68 buffer; also called Aβ42 monomer
T2 sequence (peptide, as listed by the source): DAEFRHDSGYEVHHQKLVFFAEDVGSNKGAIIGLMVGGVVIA
Method: as §1, §2

[3] = target: T3, Aβ(1-42) globulomer (human); test: as above
T3 construct: the definition mentions n=12-14 for late assembly forms; also called human A-beta oligomer antigen (1-42); Aβ(1-42) globular oligomer
Method: as §1, §2

[4] = target: T3, Aβ(1-42) globulomer; test: dot blot densitometry; reference: Aβ(1-42) monomer
Method: as §1, §2
(§3) Discrimination of anti-Aβ-antibodies of Aβ1-40 monomer and Aβ1-42 monomer. The discrimination was calculated as the ratio of detection signal of Aβ1-42 globulomer and Aβ1-42 monomer, respectively Aβ1-40 monomer.

[5] = target: T3, Aβ(1-42) globulomer; test: dot blot densitometry; reference: Aβ(1-40) monomer
Method: as §1, §2, §3

[6] = target: T3, Aβ(1-42) globulomer; test: competition ELISA, Expt. 2: unlabelled antibody against biotinylated Mu8F5 on coated human A-beta oligomer antigen (1-42)
Method: (§4) MaxiSorp ELISA plates (Nalge Nunc International) were coated overnight at 4° C. with 100 μl/well of 5.0 μg/ml human A-beta oligomer antigen (1-42) (Abbott Biosciences Corporation, Worcester, Mass.) in PBS, washed with Wash Buffer (PBS containing 0.1% Tween 20), and blocked for 1 hr at room temperature with 340 μl/well of SuperBlock Blocking Buffer in PBS (Pierce Chemical Company). After washing with Wash Buffer, a mixture of biotinylated Mu8F5 (1.0 μg/ml final concentration) and competitor antibody (Mu8F5 or Hu8F5 starting at 27 μg/ml final concentration and serially diluted 3-fold) in 100 μl/well of 5% Superblock Blocking Buffer in PBS was added in triplicate. As a no-competitor control, 100 μl/well of 5% Superblock Blocking Buffer in PBS was used. After incubating the plates for 2 hrs at room temperature, and washing with Wash Buffer, bound antibodies were detected using 100 μl/well of 1 μg/ml HRP-conjugated streptavidin (Pierce Chemical Company) in 5% Superblock Blocking Buffer in PBS. After incubating for 30 min at room temperature, and washing with Wash Buffer, color development was performed by adding 100 μl/well of ABTS Peroxidase Substrate/Peroxidase Solution B (KPL). […] Absorbance was read at 415 nm.
(§5) The affinity of Hu8F5 to human A-beta oligomer antigen (1-42) was analyzed by competition ELISA as described in Materials and Methods. […]

[7] = target: T3, Aβ(1-42) globulomer; test: competition ELISA, Expt. 1: unlabelled antibody against biotinylated Mu8F5 (1.0 µg/ml) on coated human A-beta oligomer antigen (1-42)
Method: as §4, §5

[8] = target: T3, Aβ(1-42) globulomer; test: competition ELISA, average of 3 experiments: unlabelled antibody against biotinylated Mu8F5 on coated human A-beta oligomer antigen (1-42)
Method: as §4, §5

[9] = target: T3, Aβ(1-42) globulomer; test: competition ELISA, Expt. 3: unlabelled antibody against biotinylated Mu8F5 on coated human A-beta oligomer antigen (1-42)
Method: as §4, §5

[10] = target: T3, Aβ(1-42) globulomer; test: competition ELISA, average of 3 experiments: competitor against biotinylated Mu8F5 on coated human A-beta oligomer antigen (1-42)
Method: as §4, §5

[11] = target: T3, Aβ(1-42) globulomer; test: competition ELISA, Expt. 1: competitor against biotinylated Mu8F5 on coated human A-beta oligomer antigen (1-42)
Method: as §4, §5

[12] = target: T3, Aβ(1-42) globulomer; test: competition ELISA, Expt. 3: competitor against biotinylated Mu8F5 on coated human A-beta oligomer antigen (1-42)
Method: as §4, §5

[13] = target: T3, Aβ(1-42) globulomer; test: competition ELISA, Expt. 2: competitor against biotinylated Mu8F5 on coated human A-beta oligomer antigen (1-42)
Method: as §4, §5

B1: humanized monoclonal antibody 8F5hum8 (antibody, V domains shown)
VH: EVQLVESGGGLVQPGGSLRLSCAASGFTFSSYGMSWVRQAPGKGLELVASINSNGGSTYYPDSVKGRFTISRDNAKNTLYLQMNSLRAEDTAVYYCASGDYWGQGTLVTVSS
VL: DIVMTQSPLSLPVTPGEPASISCRSSQSLVYSNGDTYLHWYLQKPGQSPKLLIYKVSNRFSGVPDRFSGSGSGTDFTLKISRVEAEDVGVYYCSQSTHVPWTFGGGTKVEIKR
notes: It was detected with anti-human IgG; also called humanized antibody 8F5; mMAb 8F5hum8
Reflective Density (RD) [10 pmol] [1]: 0.04 RD
Reflective Density (RD) [10 pmol] [2]: 1.3 RD
Reflective Density (RD) [10 pmol] [3]: 2.2 RD
Ratio RD Aβ(1-42) globulomer/RD Aβ(1-42) monomer [4]: 1.6
Ratio RD Aβ(1-42) globulomer/RD Aβ(1-40) monomer [5]: 59

B3: Hu8F5v1 (humanized 8F5, heavy chain version 1) (antibody, V domains shown)
VH: B1 VH with L47W
VL: DIVMTQSPLSLPVTPGEPASISCRSSQSLVYSNGDTYLHWYLQKPGQSPKLLIYKVSNRFSGVPDRFSGSGSGTDFTLKISRVEAEDVGVYYCSQSTHVPWTFGGGTKVEIK
notes: Human IgG1/kappa, expressed in 293T/17 cells from modified pVg1.D.Tt (gamma-1 changed to z, non-a allotype: D356E, L358M, EU index) and pVk; also called Hu8F5VHv1 + Hu8F5VL
IC50 [10]: 6.36 µg/mL
IC50 [11]: 6.28 µg/mL
IC50 [12]: 5.93 µg/mL
IC50 [13]: 6.85 µg/mL

Other lines, results leading:

IC50 [6]: 4.87 µg/mL
IC50 [7]: 4.58 µg/mL
IC50 [8]: 5.08 µg/mL
IC50 [9]: 5.81 µg/mL
B2: murine monoclonal antibody 8F5 (antibody, V domains shown)
VH: EVQLVESGGGLVQPGGSLKLSCAASGFTFSSYGMSWVRQTPDKRLELVASINSNGGSTYYPDSVKGRFTISRDNAKNTLYLQMSSLKSEDTAMYYCASGDYWGQGSTLTVSS
VL: B3 VL with I2V, S7T, T14S, P15L, E17D, P18Q, V88L, Y92F, V109L
notes: Mouse monoclonal antibody; also called Mu8F5; mouse 8F5 antibody

IC50 [10]: 6.99 µg/mL
IC50 [11]: 6.29 µg/mL
IC50 [12]: 6.56 µg/mL
IC50 [13]: 8.12 µg/mL
B4: Hu8F5v2 (humanized 8F5, heavy chain version 2) (antibody, human IgG1, V domains shown)
VH: B1 VH
VL: B3 VL
notes: Human IgG1/kappa, as for Hu8F5v1; The heavy chain differs from version 1 by the additional mouse residue at position 47 (W47L mutation of the Hu8F5VH gene); also called Hu8F5VHv2 + Hu8F5VL
